Source: the supplement of paper PMC12667976

B1: library; numbered along this chain (parent)
chain: MATDAALRRLLRLHRTEIAVAVDSAFPLLHALADHDVVPEDKFQETLHLKEKEGCPQAFHALLSWLLTQDSTAILDFWRVLFKDYNLERYGRLQPILDSFPKDVDLSQPRKGRKPPAVPKALVPPPRLPTKRKASEEARAAAPAALTPRGTASPGSQLKAKPPKKPESSAEQQRLPLGNGIQTMSASVQRAVAMSSGDVPGARGAVEGILIQQVFESGGSKKCIQVGGEFYTPSKFEDSGSGKNKARSSSGPKPLVRAKGAQGAAPGGGEARLGQQGSVPAPLALPSDPQLHQKNEDECAVCRDGGELICCDGCPRAFHLACLSPPLREIPSGTWRCSSCLQATVQEVQPRAEEPRPQEPPVETPLPPGLRSAGEEVRGPPGEPLAGMDTTLVYKHLPAPPSAAPLPGLDSSALHPLLCVGPEGQQNLAPGARCGVCGDGTDVLRCTHCAAAFHWRCHFPAGTSRPGTGLRCRSCSGDVTPAPVEGVLAPSPARLAPGPAKDDTASHEPALHRDDLESLLSEHTFDGILQWAIQSMARPAAPFPS

Variants of: B1
Experiment: AIRE transcriptional activation functional score (insulin promoter-GFP; nonsense median 0, synonymous median 1) (normalised score); higher = higher AIRE activity (more reporter activation)
Conditions: with insulin promoter-GFP reporter in HEK293
Experimental: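 Deep mutational scan of full-length human AIRE (codon-optimized cDNA, DT-POPCode NNN libraries over three regions) integrated at a Bxb1 landing pad in HEK293 cells carrying an insulin core promoter-GFP reporter at a Flp-In site. Cells were sorted for the top 10% GFP about 14 days after transfection. Variant frequency log-ratios (select vs non-select, TileSeq) were rescaled so that the nonsense median is 0 and the synonymous median is 1, then averaged over biological replicates.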

AIRE transcriptional activation functional score, by site and new letter:
P129: S 0.685; Y 0.0475; E -0.0453; L 0.107; Q 0.651; H -0.142; F 0.395; G 0.951; M 0.564; V 0.215; C 0.895; D 0.0133; R 0.451; T 1.17; A 0.717; N 0.901; W -0.183; K 1.07; I 0.253
A140: E 1.36; R 1.14; H 1.37; D 1.07; M 0.337; V 1.35; G 1.12; Y 1.38; K 0.768; W 1.46; F 1.71; P 1.56; L 1.13; N 0.714; S 1.02; Q 0.908; C 0.626; T 1.12; I 1.46
P124: Q 0.964; H 0.958; T 0.68; K 0.627; S 1.08; D 0.6; E 0.934; W 1.5; F 1.35; L 1.09; G 1.27; R 0.769; M 1.48; Y 1.81; V 1.65; C 1.15; N 0.804; I 1.71
L128: E 0.0699; V 1.12; P 1.17; T 1.62; Y 1.41; N 1.02; R 0.525; Q 0.496; G 1.51; M 1.32; A 1.19; F 1.43; K -0.124; I 1.19; D -0.0224; C 1.19; W 1.39; S 0.817; H 0.857
R132: C -0.0301; N -0.47; D 0.252; I -0.0777; K 0.0662; S 0.00923; G 0.129; V -0.3; Y 0.288; M 0.275; A 0.179; T -0.125; F -0.0252; L -0.017; E 0.0732; W 0.538; Q 0.308; P -0.258; H 0.458
A138: W 1.66; N 0.5; F 1.13; P 0.857; Q 0.334; R 1.19; C 1.51; E 1.11; M 2.84; V 1.1; T 0.99; G 0.96; K 0.889; D 0.727; I 1.06; S 0.847; Y 1.36; L 1.27; H 0.328
A141: R 1.02; G 1.28; I 0.758; Q 1.24; C 0.959; K 1.19; F 1.77; E 1.49; M 0.533; D 1.25; L 1.36; H 1.12; P 0.97; N 0.447
S135: D 1.56; Y 0.884; G -0.37; K 1.43; N 0.753; P 0.181; F 1.13; A 2.31; T 2.07; W 1.79; I 1.2; L 1.04; H 1.48; M -0.155; R 0.761; C 0.747; E 1.38; V 0.924; Q 1.13
R139: E 0.912; S 0.893; K 1.37; L 1.19; I 1; N 0.522; V 0.965; W 1.54; Y 1.25; D 0.568; F 1.51; M 1.04; A -0.0134; Q 1.35; P 0.0776; G 1.2; C 0.377; H 0.679; T 0.641
P126: L 0.122; R -0.0135; S 0.0633; V 0.0693; M 0.141; K 1.08; C 0.317; G 1.42; Q -0.177; D 0.773; Y -0.0102; H 0.139; T 0.134; N 0.042; W 0.0843; A 0.621; F 0.304; E 0.762; I 0.105
E137: W 1.59; T 0.166; F 1.36; S 0.539; P 1.18; N 0.174; Y 1.71; G 0.593; M 2.33; H 0.409; A 1.36; Q -0.415; D 1.23; R 0.377; K 0.00389; I 0.97; L 0.822; C 0.524; V 0.84
A134: F 1.29; V 1.34; G -0.0179; Q 1.1; W 0.124; L 1.11; Y 0.952; R 0.538; S 1.06; T -0.16; M -0.832; I 1.43; K -3.51; E -0.378; P -0.0505; D 0.263; N 1.63; H 0.548; C 1.35
K133: H 0.287; E 0.0731; V -0.175; T 0.351; N -0.0115; A -0.0211; I -0.178; L -0.0606; Y -0.0322; F -0.0481; G 0.153; D 0.12; C 0.0795; S 0.436; W -0.155; M -0.0607; R 1.43; P 0.469; Q -0.167
T130: Y 1.11; K 0.531; D 0.225; W 1.39; A 1.78; F 1.71; H 0.621; P 1.36; E 0.325; R 0.316; N 0.915; V 0.747; C 1.38; S 1.36; L 1.13; G 1.13; I 1.05
P125: L 1.24; S 1.04; Y 0.77; H 1.27; A 1.25; E 0.892; F 0.97; I 1.36; Q 0.768; G 1.08; D 0.901; M 1.18; C 0.918; V 1.19; K 0.907; W 1.36; N 0.92; R 0.79; T 1.42
E136: I 0.792; Q 1.45; N 0.529; W 1; M 0.441; F 0.605; G 0.816; K -0.163; L 0.669; P 1.91; R -0.203; Y 1.32; D 0.541; C 1.22; T 0.767; S 0.919; H 1.15; V 0.704; A 1.16
K131: S 0.0229; H 0.185; I -0.103; Y 0.0539; R -0.372; W -0.218; M 0.154; E 0.0987; C -0.0234; Q -0.125; G -0.226; P 0.0359; A 0.284; T -0.293; L -0.159; V 0.174; D -0.154; F 0.0637; N 0.0453
R127: P 0.804; L 0.607; Y 0.503; V 0.801; W 0.912; D 0.358; I 0.611; E 0.317; K 0.758; N 1.09; Q 0.887; G 0.421; T 0.335; C 0.833; H 0.326; S 0.869; A 0.314; F 0.897; M 1.1
